The target in assay [1] is PR8 HA as used for cryo-EM with Fabs (Influenza A virus A/Puerto Rico/8/1934 …, UniProt P03452). In words: cryo-EM structure. Conditions: both partners purified.
Assay [2] deals with single site-biotinylated PR8 HA (as loaded on streptavidin biosensors for BLI) (influenza virus strain A/Puerto Rico/8/1934 (PR8)) (UniProt P03452). The experiment in a line: BLI; Octet RED96; […]; association 300 s, dissociation 600 s; global fit 1:1. In general terms: Biolayer interferometry detects binding as a change in optical thickness at a sensor tip.
single site-biotinylated PR8 HA (as loaded on streptavidin biosensors for BLI) (influenza virus strain A/Puerto Rico/8/1934 (PR8)), sequence (P03452 18-338): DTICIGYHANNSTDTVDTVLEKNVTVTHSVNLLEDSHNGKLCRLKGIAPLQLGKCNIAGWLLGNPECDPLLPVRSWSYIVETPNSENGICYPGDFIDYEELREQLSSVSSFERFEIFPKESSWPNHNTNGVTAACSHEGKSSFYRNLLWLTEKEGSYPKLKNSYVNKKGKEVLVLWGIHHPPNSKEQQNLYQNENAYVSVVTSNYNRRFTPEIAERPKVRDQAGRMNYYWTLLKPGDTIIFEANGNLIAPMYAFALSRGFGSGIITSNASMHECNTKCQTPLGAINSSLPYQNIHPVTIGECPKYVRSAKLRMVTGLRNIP
Assay [3] concerns the target recombinant hemagglutinin (HA) from influenza virus strain A/Puerto Rico/8/1934 (PR8), cysteine-crosslinked, … (Influenza A virus A/Puerto Rico/8/1934 …, UniProt P03452). In words: ELISA. As to conditions: both partners purified. (An ELISA detects its analyte on a solid surface through an enzyme-linked reagent.)

The term Kd denotes a measure of binding affinity in units of concentration. Low readings indicate higher affinity, high ones lower affinity.

PR8 HA as used for cryo-EM with Fabs, sequence (P03452 18-338): as above
recombinant hemagglutinin (HA) from influenza virus strain A/Puerto Rico/8/1934 (PR8), cysteine-crosslinked, …, sequence (P03452 18-338): as above

B1: Fab Cb (Fab 73.1) (Fab, V domains shown)
VH: QVQLQQSGAELVRPGTSVKISCKASGYTFSNYWLGWLKQRPGHGLEWIGDIYPGGGYTNYNEKLKGKATLTADTSSSTAYMQLSSLTSEDSAVYFCARPRYGDYWYFDVWGAGTTVTVSS
VL: VHSALMAASPGEKVTITCSVSSSISSSNLHWYQQKSETSPKPWIYGTSNLASGVPVRFSGSGSGTSYSLTISSMEAEDAATYYCQQWSSYPLTFGAGTKLELK
Regarding B1, the binding result in assay [1] is reported as “binds”. Further, the Kd in assay [2] is 30 nM.

B2: mAb 73.1 (clone Cb), recombinant monoclonal antibody (antibody, V domains shown)
VH: QVQLQQSGAELVRPGTSVKISCKASGYTFSNYWLGWLKQRPGHGLEWIGDIYPGGGYTNYNEKLKGKATLTADTSSSTAYMQLSSLTSEDSAVYFCARPRYGDYWYFDVWGAGTTVTVSS
VL: VHSALMAASPGEKVTITCSVSSSISSSNLHWYQQKSETSPKPWIYGTSNLASGVPVRFSGSGSGTSYSLTISSMEAEDAATYYCQQWSSYPLTFGAGTKLELK
notes: copies: 2 + 2
With B2, the binding result in assay [3] is given as “binds”.

(Values after doi:10.1101/2025.11.06.686519 (bioRxiv, 2025).)
